Test results: the supplement of paper PMC12042874
± gives the uncertainty stated by the source.

Test: amyloid nucleation score (Sup35N fusion, yeast selection) (log enrichment); library NNK1; higher = more nucleation; inactive = no reads after selection
Outline: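 Using DiMSum, nucleation scores were taken as the log enrichment of output over input reads, centred on the mode score of non-aggregating sequences. The input and output reads came from Illumina sequencing of plasmid inserts, with sequences under 100 input reads excluded. The yeast were psi-negative, expressed Sup35N fused to peptides of 20 random codons, were induced with 100 μM copper sulfate for 24 hours, and were grown 7 days at 30°C on medium lacking adenine and uracil.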

Row | Substance | amyloid nucleation score
1 | GSTDGKGVTQRNYVNSILYV | 0.472 ± 0.78
2 | GSWGVRVFHFFARSRP | 0.032 ± 0.79
3 | GTCFCFITVSLLLVPVVLSD | -1.02 ± 2.7
4 | GTCTMTKSFMIDIF | 0.235 ± 0.25
5 | GTFSGQKLCYVCVSLSGFG | 0.005 ± 0.5
6 | GTFSGRKEL | 0.463 ± 0.3
7 | GTGLVAMVAT | -1.24 ± 1.1
8 | GTGRVLVIAKALNYCCIS | 6.811 ± 0.054
9 | GTLFYTDPLLCIVYLINLCR | -0.33 ± 0.56
10 | GTSLRSGWRYCEFTRRSCLV | 0.068 ± 0.6
11 | GTSTHIIFGMAVSSVRRYHM | 1.33 ± 0.33
12 | GTTCGSLHRAWGLAKTGCNW | -0.388 ± 0.42
13 | GTTFIRLIYFVYMARTTTEF | -1.35 ± 1.1
14 | GTTLTDSVCYRGLNFPRLY | -0.435 ± 1.9
15 | GTYSKG | 0.7 ± 0.97
16 | GVCVNVKLLNWFKSRGTSSR | 1.91 ± 0.38
17 | GVDLVSAIYGTSGHTVWMAF | -0.054 ± 0.52
18 | GVEVAFDVLEETRQWPEYYR | 1.49 ± 0.49
19 | GVGMAPATLGPETHEKSELM | 0.282 ± 0.3
20 | GVGRGCYSMACCSAGRLTDG | -0.122 ± 0.85
21 | GVHSTEKNEWTQTFQSGR | -0.103 ± 0.98
22 | GVHYYHLASWTWISFLITRR | 0.424 ± 0.85
23 | GVLLLIQSGNCRWRRSSRAP | 0.344 ± 0.65
24 | GVLSIVVKSR | -2.2 ± 1.7
25 | GVMCIMYNFSHYYLSVVNNR | 7.77 ± 0.083

Row | Substance | amyloid nucleation score
26 | GVPYR | 0.044 ± 0.68
27 | GVRCRLLRIPFVSISRSGWR | 0.743 ± 0.58
28 | GVTMVISPPYVMAGRSDMFL | -0.031 ± 0.65
29 | GVVGNTHQVPNRGRRSRFLL | -1.54 ± 1.7
30 | GVWDGKRSYGSLQSWAFVPE | -0.138 ± 0.41
31 | GVWVGIICKINLKYAFR | 1.23 ± 0.34
32 | GWTCYLSVGRIRF | 1.94 ± 0.11
33 | GWTTYPSNN | 0.996 ± 0.37
34 | GYACYFSSSDYCWVAPHCGL | 1.01 ± 0.14
35 | GYASAVVHHVGWNPTVGSLM | -0.115 ± 0.42
36 | GYCVLVTLLGNTNEYPAGCP | 0.563 ± 0.41
37 | GYEDRRSRCSIWVVRFLNVL | -0.605 ± 0.8
38 | GYEEFGVGRTSVPMETARLK | -0.406 ± 0.44
39 | GYFCGMDLCTKEGLTHYEY | -0.736 ± 0.72
40 | GYFVSMSTDYSLSWRYICSA | -1.16 ± 0.67
41 | GYFVYYFLFIYCVFRVFSTL | 4.82 ± 0.12
42 | GYHDGISMFSCVYSCYQSVS | 5.92 ± 0.061
43 | GYLLCAG | 0.549 ± 0.71
44 | GYMCLSL | 0.395 ± 0.29
45 | GYNFKRVSNFSVYGLVSYSN | 0.046 ± 1.6
46 | GYRSIGASGTQDLSQVVLNK | 0.901 ± 0.98
47 | HAEWGGDAKPTRYRRRNEAG | inactive
48 | HAGLQRALTPQIRLFSGLAS | -0.268 ± 1.4
49 | HAKNSRIYSWLFLCSIKWG | 0.396 ± 0.3
50 | HARTSRVRNDSSRAALNARW | -0.392 ± 0.36

Row | Substance | amyloid nucleation score
51 | HCMGRACPHS | 5.11 ± 0.11
52 | HCRPFFSVEINKCLSC | 5.15 ± 0.1
53 | HCSSFNILRMNDNE | 0.398 ± 0.23
54 | HDLHFFHGVAARQNVRRAYR | 0.724 ± 1
55 | HDLTWVSTSESFFSLMGHAS | -0.28 ± 0.29
56 | HDLVKVFSFCVWP | 3.02 ± 0.19
57 | HDQSYSHSGSNGFRQKNEAN | 1.32 ± 0.5
58 | HDSAELDSRYNSASCVSLWL | -0.213 ± 1.1
59 | HDSTGHGEYVVGPEPFFPCA | 0.024 ± 0.4
60 | HESLWKFESSFADKNRTVWN | 1.32 ± 0.45
61 | HEYDLDKGTS | inactive
62 | HFPSHLVLRETERFKQLHCG | 0.374 ± 0.62
63 | HFSFLSVDKRHWAFGPLCRK | 7.358 ± 0.073
64 | HFVGMMMKSGGFARLTYNKG | 0.443 ± 0.45
65 | HGINET | 0.357 ± 0.48
66 | HGKYQGTDRYAETGSISGGT | -0.395 ± 0.37
67 | HGPHYLLITGRGTRDNQSRD | -0.721 ± 0.65
68 | HHIDPHDSFIS | 0.711 ± 0.93
69 | HHKTFV | inactive
70 | HHLDPGQTHEIVSCSTWFTF | -0.397 ± 0.29
71 | HILGPLIRSMMIFSCLVSVV | 1.29 ± 0.36
72 | HIRLAQ | 0.157 ± 0.76
73 | HISGLPVWLSCSWFWPKRLL | 0.08 ± 0.32
74 | HIVQRCFHVIYCSRVFYVLY | 0.386 ± 0.53
75 | HKCVLELFSLIFLGGYFFLR | 0.041 ± 0.45

Row | Substance | amyloid nucleation score
76 | HKNSTVKSVWQDLMSDVDVD | -0.028 ± 0.43
77 | HLFRYSGTTSAV | 0.386 ± 0.53
78 | HLINLSDEIQYSYCNKRMVS | inactive
79 | HLLNMNSDLRTHCYVVWT | -0.264 ± 0.25
80 | HLLWETSMQRLMSHIFTSSR | 0.022 ± 0.43
81 | HLMDSSYGSGSGCSTKTSCV | 0.061 ± 0.28
82 | HLSLGINVPTCFLSEKALLV | 1.25 ± 0.68
83 | HLVGWESR | 0.476 ± 0.79
84 | HLVRLTFVMLFGGNLWISS | 0.91 ± 0.26
85 | HMLWNNVRIF | 0.09 ± 0.6
86 | HNCTTGVTFKSEIASILVQP | -0.261 ± 0.4
87 | HNGDCMITACNTGVLAGYIS | 1.88 ± 0.26
88 | HNHADATQKKCGVQ | -0.112 ± 0.28
89 | HNIAIAPARWCVSSIRSG | -0.53 ± 0.45
90 | HNTSLYVTLNSSTR | 6.2 ± 0.09
91 | HNVFDNLHMDSDKRMANSV | 0.428 ± 0.4
92 | HNVQGRWFFRAHWMSYKHTI | 0.249 ± 0.62
93 | HNWSCQVHRDINLDRGAKES | 1.79 ± 0.4
94 | HPIEWSKVSDNIRRQSGCCG | 0.754 ± 0.33
95 | HPLAAVSKLCRRSRLGLSSR | -0.124 ± 0.35
96 | HPMKCFQANQFINIYRNDVA | 7.136 ± 0.059
97 | HPPNFVNVSW | -0.023 ± 0.51
98 | HQEAGLGSMVQTNAHATAKP | -0.081 ± 1
99 | HQIPCPFRSRLARPGHLLEI | -0.612 ± 1
100 | HRYYSYSWGLWLSTTWEYFS | inactive

Row | Substance | amyloid nucleation score
101 | HSATGQIGRALLTSSCVCL | inactive
102 | HSCTTLPL | -0.461 ± 0.79
103 | HSIDLGTFDGFFKIRLSSTT | 0.598 ± 0.78
104 | HSLAGLGIIGRCAKLVQAQS | 0.48 ± 0.25
105 | HSLGTCRFFVIAHSLK | 0.583 ± 0.69
106 | HSLLWPLGFAQ | 0.184 ± 0.67
107 | HSWCMSSSSIKFVCLENDLL | 6.804 ± 0.061
108 | HTQYSSRYGFMCSRWIVSGV | 0.684 ± 0.7
109 | HTSCRTVQHLKVWFPVK | 1.25 ± 0.74
110 | HVCKRRFRFRGLTILCRFTL | -0.769 ± 1.1
111 | HVGIDIAVTWLQVKRVAMAS | 0.037 ± 0.31
112 | HVRHNVYISVCEVARDKRRG | 5.12 ± 0.08
113 | HVSSSE | -0.174 ± 1.1
114 | HVTKMNCPLCQVKLGNYPVY | -0.546 ± 0.49
115 | HVTNSWNSKGLRTSSGDTNV | 0.305 ± 0.4
116 | HWLRYGDRIHMDNYNTSFFV | 1.42 ± 0.12
117 | HWMFFYRDIFCVCVNSFL | 4.17 ± 0.085
118 | HWWVGKRLLLHPWVA | 0.224 ± 0.31
119 | HYACRRSVERSKRRGVRGSM | 0.039 ± 0.46
120 | HYFPVIDQAICFDSFRPMPV | inactive
121 | HYIVDLEQLQWDVWGIFSDS | 0.058 ± 0.73
122 | HYMRWIGLRTDTKGPRSGSG | -0.578 ± 0.86
123 | HYRSHSIGIRFAVSDWRIAF | 0.844 ± 0.46
124 | HYTLIESSNRSANNEPQVTH | 0.353 ± 0.88
125 | IAAVFHCKNSLMY | 2 ± 0.2

Row | Substance | amyloid nucleation score
126 | IACPYRHNGCNTRLRNINAV | -0.316 ± 0.42
127 | IADGTLTVSL | 0.609 ± 0.32
128 | IALNRMFSISLVFYDKGFWY | inactive
129 | IAMKPENK | -0.997 ± 0.57
130 | IATFGVTMSNSWT | 2.84 ± 0.13
131 | IATKGKDVVFVRCGPDPQL | 1.04 ± 0.53
132 | IATYCYLFSCWFIYVLT | 0.992 ± 0.84
133 | IAYDRRFIDLTRFIAIKFYI | -0.021 ± 0.93
134 | ICFCL | 7.772 ± 0.054
135 | ICGNSSTEASGL | 0.039 ± 0.56
136 | ICICLMLSVIGSSSHVLLDW | 1.08 ± 0.72
137 | ICLYGACYFGVVWSKGGPGK | -0.634 ± 0.32
138 | ICMKLLFEYLVPVLRQAH | -0.307 ± 1.2
139 | ICSVRSTQVGEKTSLPWLCR | 0.371 ± 0.41
140 | ICVLCC | 1.15 ± 0.62
141 | ICVMS | inactive
142 | ICWRMKVMWPYRTIGSSLTF | 1.02 ± 0.45
143 | IDCGSFSYKQSMQLMCKSAQ | -0.19 ± 0.28
144 | IDHPTVKLIRYSAIHIALVT | 0.093 ± 0.28
145 | IDMLFPFCCVALRSHRSLEG | 0.722 ± 0.46
146 | IEEPIYDSKHLPKMRSTGYT | 0.486 ± 0.35
147 | IEGWHTRVHRRTLIVMCLIG | 1.09 ± 0.41
148 | IEIIIASSGHHHYIKRDNVY | 0.652 ± 0.58
149 | IEISDMSWFRPVMFNDAKEL | 1.44 ± 0.53
150 | IENSIGGMQLGVSISYMSGT | 0.208 ± 0.41

Row | Substance | amyloid nucleation score
151 | IEWFVLGDYMCTAQSVCGLV | -1.26 ± 1.3
152 | IFCAPLTTSQIALRVYNRRL | 0.727 ± 0.88
153 | IFDSFQATLCLGCLMLLSYF | 0.423 ± 0.44
154 | IFHGWVTGCCLVDNLLFYCT | 5.42 ± 0.1
155 | IFMRSAERGMRVLLEDDCRT | 0.256 ± 0.61
156 | IFNSEVVSSLIRVVSMNMEG | 0.654 ± 0.21
157 | IFPCNFSGNYLRKVWFPVRY | 0.42 ± 0.91
158 | IFSCGIGHWV | 0.462 ± 0.49
159 | IFSRSEEFVFFGHINSV | 1.68 ± 0.32
160 | IFTRLSLSFHNLGLGWKTRV | -0.248 ± 0.38
161 | IFVFWTALSTSHNGWGVPVM | inactive
162 | IFWGWSIQG | 1.17 ± 0.58
163 | IFYSSFS | inactive
164 | IGAGL | -1.07 ± 2.4
165 | IGAHFQSNLVIKVNSLEN | 0.697 ± 0.63
166 | IGALTSHAHQNVCVCNLLKD | 0.307 ± 0.81
167 | IGDRKMSY | 0.145 ± 0.71
168 | IGESVHKLSFWCDSGECF | 0.073 ± 0.31
169 | IGGPYLVGSHKLKLWPWLES | -0.575 ± 0.34
